Columns and labels:
[1] = target: T1, recombinant human ADAMTS5 (R&D Systems cat #2198-AD) (human, UniProt Q9UNA0 262-622, limits assumed); assay: SPR kinetics, Biacore T100, ADAMTS5 immobilised
T1 construct: bought protein
T1 sequence: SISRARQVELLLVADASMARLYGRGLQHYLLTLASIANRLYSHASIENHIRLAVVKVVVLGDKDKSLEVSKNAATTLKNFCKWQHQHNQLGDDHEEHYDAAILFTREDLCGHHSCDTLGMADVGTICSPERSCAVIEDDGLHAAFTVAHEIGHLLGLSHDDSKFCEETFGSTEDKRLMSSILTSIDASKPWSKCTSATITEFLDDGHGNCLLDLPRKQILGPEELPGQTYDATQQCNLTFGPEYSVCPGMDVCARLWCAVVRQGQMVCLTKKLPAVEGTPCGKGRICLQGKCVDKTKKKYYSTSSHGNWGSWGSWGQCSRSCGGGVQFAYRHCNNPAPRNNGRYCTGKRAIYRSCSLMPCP
Experimental: (§1) For referencing, affinity for human ADAMTS5 was also determined. Thereto, rat and human ADAMTS5 were immobilized onto a CM5 chip via amine coupling, using EDC and NHS chemistry. Purified Nanobodies were injected for 2 minutes at different concentrations (between 1 and 1000 nM) and allowed to dissociate for 25 min at a flow rate of 45 μl/min. The kinetic constants were calculated from the sensorgrams using the BIAEvaluation software (1:1 interaction).

rat recombinant ADAMTS5 = target: T2, rat recombinant ADAMTS5 (rat, UniProt Q9R001 262-618 (mouse entry)); assay: SPR kinetics, Biacore T100, ADAMTS5 immobilised
T2 construct: in house, HEK293, His tag in the entry
T2 chain: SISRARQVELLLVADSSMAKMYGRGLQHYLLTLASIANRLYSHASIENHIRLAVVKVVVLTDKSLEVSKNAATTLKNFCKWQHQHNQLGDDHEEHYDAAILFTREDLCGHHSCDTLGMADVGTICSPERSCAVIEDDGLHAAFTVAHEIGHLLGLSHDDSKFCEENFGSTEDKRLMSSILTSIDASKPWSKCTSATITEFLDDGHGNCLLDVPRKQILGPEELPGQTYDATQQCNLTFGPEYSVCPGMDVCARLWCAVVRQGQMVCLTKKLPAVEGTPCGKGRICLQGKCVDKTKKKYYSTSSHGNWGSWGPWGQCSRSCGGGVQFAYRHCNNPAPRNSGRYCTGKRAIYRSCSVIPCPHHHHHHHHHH
Experimental: as §1

[2] = target: T3, guinea pig recombinant ADAMTS5 (guinea pig); assay: SPR off-rate, Biacore T100, ADAMTS5 immobilised, experiment 1
T3 construct: in house, HEK293, His tag in the entry
T3 chain: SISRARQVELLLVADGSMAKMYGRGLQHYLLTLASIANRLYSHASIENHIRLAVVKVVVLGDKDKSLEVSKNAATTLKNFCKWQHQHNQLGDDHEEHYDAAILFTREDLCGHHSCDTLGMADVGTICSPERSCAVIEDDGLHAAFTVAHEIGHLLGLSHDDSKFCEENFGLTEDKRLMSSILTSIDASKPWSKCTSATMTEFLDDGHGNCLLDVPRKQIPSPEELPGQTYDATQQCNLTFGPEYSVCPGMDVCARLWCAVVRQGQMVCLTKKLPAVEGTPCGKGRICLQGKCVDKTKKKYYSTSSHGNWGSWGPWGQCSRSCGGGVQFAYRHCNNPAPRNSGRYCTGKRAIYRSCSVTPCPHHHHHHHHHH
Experimental: (§2) Species cross-reactivity was initially evaluated via SPR-based off-rate analysis on a Biacore T100 instrument. Nanobodies were tested for binding to human, cynomolgus monkey (“cyno”), guinea pig, mouse, and bovine ADAMTS5. To this end, recombinant ADAMTS5 was immobilized onto a CM5 chip via amine coupling using EDC and NHS. Purified Nanobodies were injected for 2 minutes at a concentration of 100 nM and allowed to dissociate for 15 min at a flow rate of 45 ul/min. Off-rate for each individual Nanobody was determined by fitting a 1:1 interaction model (Langmuir model) onto the individual dissociation curves using the BIA Evaluation software. As a reference, off-rates on human ADAMTS5 were determined in each experiment.

[3] = target: T1, recombinant human ADAMTS5 (R&D Systems …); assay: as above
Experimental: as §2

[4] = target: T4, cynomolgus monkey recombinant ADAMTS5 (cynomolgus monkey, UniProt Q9UNA0 262-622 (human entry), limits assumed); assay: as above
T4 construct: in house, HEK293, His tag in the entry; also called cyno ADAMTS5
T4 chain: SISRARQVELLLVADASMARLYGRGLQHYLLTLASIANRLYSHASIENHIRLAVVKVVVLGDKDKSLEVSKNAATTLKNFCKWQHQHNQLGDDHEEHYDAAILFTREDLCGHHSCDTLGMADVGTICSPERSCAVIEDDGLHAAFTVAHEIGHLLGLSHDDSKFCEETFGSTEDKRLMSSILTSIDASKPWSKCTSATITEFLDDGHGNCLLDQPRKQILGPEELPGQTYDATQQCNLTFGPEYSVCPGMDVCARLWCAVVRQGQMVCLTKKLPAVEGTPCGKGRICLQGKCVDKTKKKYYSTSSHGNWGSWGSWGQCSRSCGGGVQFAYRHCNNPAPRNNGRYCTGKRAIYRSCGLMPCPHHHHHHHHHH
Experimental: as §2

[5] = target: T5, mouse recombinant ADAMTS5 (mouse, UniProt Q9R001 262-622, limits assumed); assay: SPR off-rate, Biacore T100, ADAMTS5 immobilised, experiment 2
T5 construct: in house, HEK293, His tag in the entry
T5 sequence: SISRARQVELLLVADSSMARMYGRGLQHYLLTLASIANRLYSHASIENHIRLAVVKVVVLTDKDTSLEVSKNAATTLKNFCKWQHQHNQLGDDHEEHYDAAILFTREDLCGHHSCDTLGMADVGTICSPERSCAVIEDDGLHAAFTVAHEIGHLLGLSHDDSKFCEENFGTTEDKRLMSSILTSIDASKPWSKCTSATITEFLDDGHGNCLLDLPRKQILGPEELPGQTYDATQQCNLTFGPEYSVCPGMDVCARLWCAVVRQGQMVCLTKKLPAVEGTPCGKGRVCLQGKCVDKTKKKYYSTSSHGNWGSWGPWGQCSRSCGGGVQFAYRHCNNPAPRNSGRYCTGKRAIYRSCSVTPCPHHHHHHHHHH
Experimental: as §2

[6] = target: T1, recombinant human ADAMTS5 (R&D Systems …); assay: as above
Experimental: as §2

[7] = target: T1, recombinant human ADAMTS5 (R&D Systems …); assay: cell-based or functional assay

| Binder | Kd [1] [nM] | Kd (rat recombinant ADAMTS5) [nM] | koff [2] [s⁻¹] | koff [3] [s⁻¹] | koff [4] [s⁻¹] | koff [5] [s⁻¹] | koff [6] [s⁻¹] | Human AlphaLISA % inhibition [7] [%] | Human AlphaLISA IC50 [7] [nM] |
| --- | --- | --- | --- | --- | --- | --- | --- | --- | --- |
| Nanobody 2A12 (VHH, tagged as tested (anti-Flag detection, IMAC); also called 02A12) VHH: EVQLVESGGGLVQAGGSLRLSCAASGRTFSSYAMGWFRQAPGKERDFVAGISRSAGRTYYVDSVKGRFTISRDSAKNTVYLQMNRLKPEDTAVYYCAADLDPNRIFSRDEAAYWGQGTLVTVSS | 1.9 | 1 | 0.00012 | 0.00014 | 0.0001 | 0.00044 | 0.00023 | 100 | 0.15 |
| Nanobody 2F03 (VHH, tagged as tested (anti-Flag detection, IMAC); also called 02F03; 2F3) VHH: EVQLVESGGGLVQAGGSLRLSCAASGRTVSSYAMGWFRLAPGKEREFVAGISRSAERTYYVDSLKGRFTISRDSAKNTVYLHMNRLKPEDTAVYYCAADLDPNRIFSREEYAYWGQGTLVTVSS | 1.6 | 0.7 | 3.4e-05 | 3.3e-05 | 2.2e-05 | 0.00029 | 6.5e-05 | 100 | 0.075 |

Source: patent US20200317802A1 (Merck KGaA, published 2020)
